This is an account of results in patent US12540945B2, “Probe and method for identifying host cell protein impurities” (Regeneron Pharmaceuticals, Inc., priority 2021, dated 2026).

The nature of this experiment: Hydrolysis of polysorbate 80 by spiked LAL, oleic acid release by LC-MS. It is filed as biochemical. To be noted: 5 ppm LAL, 0.1% PS80, pH 5.5, after 2 days of incubation.

B1: LAL: lysosomal acid lipase; recombinant CHO LAL generated in-house, spiked into PS80 samples (protein, UniProt P38571 77-399, looked up)
Lysosomal acid …: GPKPVVFLQHGLLADSSNWVTNLANSSLGFILADAGFDVWMGNSRGNTWSRKHKTLSVSQDEFWAFSYDEMAKYDLPASINFILNKTGQEQVYYVGHSQGTTIGFIAFSQIPELAKRIKMFFALGPVASVAFCTSPMAKLGRLPDHLIKDLFGDKEFLPQSAFLKWLGTHVCTHVILKELCGNLCFLLCGFNERNLNMSRVDVYTTHSPAGTSVQNMLHWSQAVKFQKFQAFDWGSSAKNYFHYNQSYPPTYNVKDMLVPTAVWSGGHDWLADVYDVNILLTQITNLVFHESIPEWEHLDFIWGLDAPWRLYNKIINLMRKYQ
modifications: recombinant, CHO-expressed
notes: lysosomal acid lipase; recombinant CHO LAL generated in-house, spiked into PS80 samples
For the molecule B1, the “oleic acid released (hydrolysis of PS80)” value is 3 µg/mL.
